Measured values reported in patent publication US20260191974A1 (UNIVERSITY OF NORTH CAROLINA AT CHAPEL HILL, published 2026).
One block for each binder: values may come before it. Bridges are numbered along the chain shown (N, C = ends). DBX = not defined here

Assays:
[1] = target: T1, human B7-H3 (hB7-H3) (human, UniProt Q5ZPR3 29-461, limits assumed); assay: SPR; oxidized (with disulfide bridge)
T1 construct: The construct is not described
T1 sequence (looked up): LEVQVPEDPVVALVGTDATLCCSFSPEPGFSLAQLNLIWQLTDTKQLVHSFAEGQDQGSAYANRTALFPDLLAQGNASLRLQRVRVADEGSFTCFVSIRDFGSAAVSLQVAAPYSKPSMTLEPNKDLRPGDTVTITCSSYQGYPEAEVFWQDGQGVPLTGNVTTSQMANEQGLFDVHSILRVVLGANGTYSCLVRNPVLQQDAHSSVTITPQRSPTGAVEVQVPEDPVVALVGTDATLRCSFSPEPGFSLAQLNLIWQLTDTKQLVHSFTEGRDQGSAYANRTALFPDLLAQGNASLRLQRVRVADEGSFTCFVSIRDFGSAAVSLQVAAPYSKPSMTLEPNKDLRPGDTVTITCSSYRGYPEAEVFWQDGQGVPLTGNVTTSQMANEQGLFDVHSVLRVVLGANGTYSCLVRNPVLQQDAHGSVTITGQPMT

[2] = target: T2, biotinylated B7-H3 (B7-H3b), immune checkpoint protein; assay: SPR, Biacore 8K single-cycle kinetics, biotinylated B7-H3 on NeutrAvidin chip, peptide as analyte
T2 construct: also called biotin immobilized B7-H3; streptavidin immobilized B7-H3
T2 sequence (Q5ZPR3 whole entry, species assumed, looked up): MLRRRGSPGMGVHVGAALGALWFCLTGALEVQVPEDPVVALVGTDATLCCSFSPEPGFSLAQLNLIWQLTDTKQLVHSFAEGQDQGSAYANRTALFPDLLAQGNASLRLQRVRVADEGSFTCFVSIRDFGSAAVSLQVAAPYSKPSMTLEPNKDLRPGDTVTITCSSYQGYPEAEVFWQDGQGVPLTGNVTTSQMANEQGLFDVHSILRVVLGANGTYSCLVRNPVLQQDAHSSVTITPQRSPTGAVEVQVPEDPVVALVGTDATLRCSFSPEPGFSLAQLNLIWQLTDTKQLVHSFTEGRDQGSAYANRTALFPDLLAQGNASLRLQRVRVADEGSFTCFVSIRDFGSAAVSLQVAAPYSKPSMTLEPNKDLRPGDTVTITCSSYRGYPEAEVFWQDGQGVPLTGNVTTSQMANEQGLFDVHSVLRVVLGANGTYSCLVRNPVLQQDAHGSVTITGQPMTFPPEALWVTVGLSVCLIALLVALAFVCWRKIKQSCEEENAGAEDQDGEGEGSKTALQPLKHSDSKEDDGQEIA
Experimental: Surface Plasmon Resonance (SPR) analysis. Binding kinetics between our selected peptide (and variants) and biotinylated B7-H3 (B7-H3b) were assessed through SPR analysis using a BIACORE 8K SPR system (GE Healthcare). The running buffer was 1×PBS pH7.5, 0.05% TWEEN® 20 and all analysis was carried out at 25° C. B7-H3b was loaded onto a NeutrAvidin SPR Chip (Series S Sensor Chip NA, 29407997, Cytiva) at a flow rate of […] to a surface density of 1000-1500 response units. Analyte was then injected over a series of five concentrations and quantified by BIACORE single-cycle kinetics method. For our selected peptide (B1.1) and the Met9Nle variant a range of 7.5, 15, 30, 60, 120 nM were run. For the linear variant concentrations of 50, 100, 200, 400, 800 nM were run. Binding sonograms were generated using a standard 1:1 binding kinetics model and kinetics constants determined using standard BIACORE evaluation software.

[3] = target: T2, biotinylated B7-H3 (B7-H3b), immune …; assay: SPR (BIACORE 8K, single-cycle kinetics, 1:1 fit); biotinylated B7-H3 on a NeutrAvidin chip, peptide as analyte at 7.5-120 nM
Text: FIGS. 4A-4G. (FIG. 4A) Selection schematic detailing the selection process for identifying binders against B7-H3. (FIG. 4B) qPCR results of the mTG mediated B7-H3 selection. (FIG. 4C) B7-H3 selection results and complete NGS analysis of B7-H3 hits. (FIG. 4D) NGS data of the selection hits. […] Arrow indicates the peptide pursued for binding validation. (FIG. 4E) EIC ([M+2], 948.91 m/z) traces corresponding to the product of the mTG reaction with linear B1.1 peptide and the synthetic lactam, disulfide peptide. (FIG. 4F) Surface Plasmon Resonance (SPR) analysis of the selected peptide (B1.1), the Met9Nle variant, and the linear variant. […] The selected B1.1 and the Met9Nle variant were analyzed at analyte concentrations of 7.5, 15, 30, 60, 120 nM. The linear variant was analyzed at analyte concentrations of 50, 100, 200, 400, 800 nM. […] (FIG. 4G) Individual SPR curves. Fitted curve and raw data are shown.
Surface Plasmon Resonance (SPR) analysis. Binding kinetics between our selected peptide (and variants) and biotinylated B7-H3 (B7-H3b) were assessed through SPR analysis using a BIACORE 8K SPR system (GE Healthcare). […] Analyte was then injected over a series of five concentrations and quantified by BIACORE single-cycle kinetics method. […] Binding sonograms were generated using a standard 1:1 binding kinetics model and kinetics constants determined using standard BIACORE evaluation software.

[4] = target: T1, human B7-H3 (hB7-H3); assay: SPR; hB7-H3 as ligand on the chip, peptide as analyte
[5] = target: T3, murine B7-H3 (mB7-H3) (murine, UniProt Q8VE98 29-244, limits assumed); assay: SPR; mB7-H3 as ligand on the chip, peptide as analyte
T3 construct: The construct is not described
T3 sequence (looked up): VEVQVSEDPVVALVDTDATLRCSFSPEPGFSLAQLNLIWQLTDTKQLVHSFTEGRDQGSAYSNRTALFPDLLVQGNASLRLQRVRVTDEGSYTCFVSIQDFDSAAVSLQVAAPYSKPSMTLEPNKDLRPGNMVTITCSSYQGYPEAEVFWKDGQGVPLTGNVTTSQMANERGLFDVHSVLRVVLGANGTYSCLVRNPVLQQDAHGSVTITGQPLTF

[6] = target: T2, biotinylated B7-H3 (B7-H3b), immune …; assay: JP5 alanine mutant library in mRNA display: background screen on beads, then selection on biotinylated B7-H3; NGS, enrichment in the selection over the input library
Text: FIGS. 17A-17B. JP5 alanine mutant library design and screen. (FIG. 17A) Each library member with the parent JP5 sequence on the top. JP5 was mutated at each residue to an Alanine. All library members, and JP5, were screened first against background components (magnetic beads) to remove nonspecific binders and then against biotinylated B7-H3 (see FIG. 14B). […] A value of >1 indicates stronger enrichment in the selection, whereas a value<1 indicates a stronger enrichment in the input library.
A single variant library of JP5 (FIG. 13A) and JP3 (FIG. 14A) was carried out. Each residue was mutated to include potentially 20/20 canonical amino acids. All library members were screened first against background components (magnetic beads) to remove nonspecific binders and then against biotinylated B7-H3 (FIG. 13B). […] The recovered material from the B7-H3 selection of JP5 and JP3 was sent for NGS (FIG. 15 and FIG. 16, respectively). In addition, JP5 was subjected to an alanine mutant scan (FIG. 17A). All library members were screened first against background components (magnetic beads) to remove nonspecific binders and then against biotinylated B7-H3 (see FIG. 13B). […] The selected AMs will be tested with surface plasmon resonance (SPR) to assess binding affinity.

[7] = target: T1, human B7-H3 (hB7-H3); assay: SPR; reduced (no disulfide bridge)
[8] = target: T1, human B7-H3 (hB7-H3); assay: SPR
[9] = target: T3, murine B7-H3 (mB7-H3); assay: SPR

B1: B1.1, selected cyclic, disulfide peptide (bicyclic: lactam and disulfide), synthetic, without the N-terminal methionine (peptide)
peptide: WALQLCHSMFYTCKSG
modifications: N-terminal acetylation (ac); lactam (isopeptide) bridge Q4-K14; disulfide bond C6-C13
notes: Made by solid phase synthesis on Rink Amide resin; also called Selected B1.1; oxidized B1.1 (with disulfide bridge)
Kd [1]: 105 nM
Kd [2]: 43.5 nM
koff [3]: 0.00674 s⁻¹
kon [3]: 155000 M⁻¹ s⁻¹
koff [4]: 0.0267 s⁻¹
kon [4]: 253000 M⁻¹ s⁻¹
Kd [5]: 161 nM
koff [5]: 0.0176 s⁻¹
kon [5]: 109000 M⁻¹ s⁻¹

B2: AM1 (peptide)
peptide: Ac-CATIRDINGTRC-NH2
modifications: bridge 1-12; also: bracket C1-C12, bond type not given here
notes: Member of the JP5 alanine mutant library; also called JP5 alanine mutant 1
SELECTION/INPUT [6]: 0.33

B3: AM2 (peptide)
peptide: Ac-CWAIRDINGTRC-NH2
modifications: bridge 1-12; also: bracket C1-C12, bond type not given here
notes: Member of the JP5 alanine mutant library; also called JP5 alanine mutant 2
SELECTION/INPUT [6]: 1.4

B4: AM3 (peptide)
peptide: Ac-CWTARDINGTRC-NH2
modifications: bridge 1-12; also: bracket C1-C12, bond type not given here
notes: Member of the JP5 alanine mutant library; also called JP5 alanine mutant 3
SELECTION/INPUT [6]: 0.309

B5: AM4 (peptide)
peptide: Ac-CWTIADINGTRC-NH2
modifications: bridge 1-12; also: bracket C1-C12, bond type not given here
notes: Member of the JP5 alanine mutant library; also called JP5 alanine mutant 4
SELECTION/INPUT [6]: 0.58

B6: AM5 (peptide)
peptide: Ac-CWTIRAINGTRC-NH2
modifications: bridge 1-12; also: bracket C1-C12, bond type not given here
notes: Member of the JP5 alanine mutant library; also called JP5 alanine mutant 5
SELECTION/INPUT [6]: 0.411

The next lines start with the values.

SELECTION/INPUT [6]: 1.99
B7: AM6 (peptide)
peptide: Ac-CWTIRDANGTRC-NH2
modifications: bridge 1-12; also: bracket C1-C12, bond type not given here
notes: Member of the JP5 alanine mutant library; also called JP5 alanine mutant 6

SELECTION/INPUT [6]: 1.53
B8: AM7 (peptide)
peptide: Ac-CWTIRDIAGTRC-NH2
modifications: bridge 1-12; also: bracket C1-C12, bond type not given here
notes: Member of the JP5 alanine mutant library; also called JP5 alanine mutant 7

SELECTION/INPUT [6]: 0.338
B9: AM8 (peptide)
peptide: Ac-CWTIRDINATRC-NH2
modifications: bridge 1-12; also: bracket C1-C12, bond type not given here
notes: Member of the JP5 alanine mutant library; also called JP5 alanine mutant 8

SELECTION/INPUT [6]: 0.422
B10: AM9 (peptide)
peptide: Ac-CWTIRDINGARC-NH2
modifications: bridge 1-12; also: bracket C1-C12, bond type not given here
notes: Member of the JP5 alanine mutant library; also called JP5 alanine mutant 9

SELECTION/INPUT [6]: 1.34
B11: AM10 (peptide)
peptide: Ac-CWTIRDINGTAC-NH2
modifications: bridge 1-12; also: bracket C1-C12, bond type not given here
notes: Member of the JP5 alanine mutant library; also called JP5 alanine mutant 10

koff [4]: 14.7 s⁻¹
kon [4]: 7.44e+07 M⁻¹ s⁻¹
Kd [7]: 198 nM
B12: reduced B1.1 (no disulfide bridge) (peptide)
peptide: WALQLCHSMFYTCKSG
modifications: no disulfide bridge (reduced cysteines C6 and C13); lactam bridge Q4-K14 and N-terminal acetylation as in B1.1
notes: also called reduced form of B1.1

Kd [8]: 772 nM
Kd [9]: 591 nM
koff [4]: 0.0966 s⁻¹
kon [4]: 125000 M⁻¹ s⁻¹
koff [5]: 0.0605 s⁻¹
kon [5]: 102000 M⁻¹ s⁻¹
Binder: Ac-CWTIRDINGTRCG-NH2 (linker 1-12 via DBX; reading uncertain, also called JP5 variant) [JP5, thioether (dibromoxylene) linked macrocyclic peptide from the DBX-mediated B7-H3 selection]
